Changes are numbered by the printed parent chain.
T1: membrane-anchored human Ang2 protein expressed on CHO-K1 cells (human, UniProt O15123 19-496)
T1 chain: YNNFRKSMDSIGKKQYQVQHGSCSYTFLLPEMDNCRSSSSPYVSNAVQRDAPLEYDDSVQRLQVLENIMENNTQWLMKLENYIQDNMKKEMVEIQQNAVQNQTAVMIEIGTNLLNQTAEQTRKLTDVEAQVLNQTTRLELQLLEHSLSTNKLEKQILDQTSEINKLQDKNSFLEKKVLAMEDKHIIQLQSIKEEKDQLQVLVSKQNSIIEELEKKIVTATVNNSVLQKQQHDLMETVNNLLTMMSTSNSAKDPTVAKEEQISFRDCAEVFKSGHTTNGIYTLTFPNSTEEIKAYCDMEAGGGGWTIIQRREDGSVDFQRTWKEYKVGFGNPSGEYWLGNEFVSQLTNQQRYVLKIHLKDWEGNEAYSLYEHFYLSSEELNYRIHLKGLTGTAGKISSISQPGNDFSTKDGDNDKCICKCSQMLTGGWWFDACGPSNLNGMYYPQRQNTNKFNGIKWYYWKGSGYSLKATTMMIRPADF

T2: membrane-anchored cyno Ang2 protein expressed on CHO-K1 cells (cyno, UniProt A0A2K5VNX6 19-496)
T2 chain: T1 chain with E258G, I279V, F284L, I291V, G410A, A468G, D477G

T3: human Ang2 protein (R&D Systems, 623-AN-01M/CF; 623-AN/CF) (human, UniProt O15123 19-496)
T3 chain: T1 chain

T4: human Ang2 protein (R&D Systems, 623-AN-01M/CF; 623-AN/CF) (human, UniProt O15123 19-496)
T4 construct: Bought recombinant protein; also called Ang2 proteins; angiopoietin-2
T4 sequence (looked up): T1 chain

T5: mouse Ang2 protein (R&D Systems, 7186-AN-025/CF) (mouse, UniProt O35608 19-496, limits assumed)
T5 construct: Bought recombinant protein
T5 sequence (looked up): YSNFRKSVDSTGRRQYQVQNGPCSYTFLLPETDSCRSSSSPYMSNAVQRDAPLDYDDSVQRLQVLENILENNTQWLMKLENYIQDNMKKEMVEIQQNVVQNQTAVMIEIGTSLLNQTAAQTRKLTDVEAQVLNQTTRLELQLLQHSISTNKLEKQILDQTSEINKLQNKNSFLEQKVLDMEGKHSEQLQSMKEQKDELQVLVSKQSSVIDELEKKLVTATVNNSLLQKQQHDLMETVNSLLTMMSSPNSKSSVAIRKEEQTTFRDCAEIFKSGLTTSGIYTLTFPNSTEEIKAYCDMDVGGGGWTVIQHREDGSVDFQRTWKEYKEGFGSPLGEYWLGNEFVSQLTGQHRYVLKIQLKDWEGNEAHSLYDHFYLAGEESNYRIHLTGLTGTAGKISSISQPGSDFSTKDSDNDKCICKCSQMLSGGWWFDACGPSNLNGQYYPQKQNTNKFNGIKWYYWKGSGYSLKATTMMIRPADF

B1: 46F3H4 (antibody, V domains shown)
VH: EVQLHQSGPELVKPGASVKMSCKASGYTFTNYYIHWVKQSHGKSIEWIGYIYPNNGDTTYNQKFKGKATLTVDKSSSIAYMELRSLTSEDSAVYYCAVVSYSNYVAGAMDYWGQGTSVTVSS
VL: SIVMTQTPKFLLVSAGDRVTITCKASQSVSNDVAWYQQKPGQSPKLLIYFASNRYTGVPDRFTGSGYGTDFTFTISTVQAEDLAVYFCQQDYSSPYTFGGGTKLEIK
notes: Hybridoma antibody purified with Protein-A beads
B2: 15H10D12 (antibody, V domains shown)
VH: DVQLQESGPGLVKPSQSLSLTCTVTGYSITSDYAWNWIRQFPGNRLEWMGYINYSGSTDYNPSLKSRISITRDTSKNQFFLQLNSVTTEDTATYYCARGVRGDMDYWGQGTSVTVSS
VL: B1 VL with F50Y, E81D, Y96F, G100S
B3: 50H8E5C5 (antibody, V domains shown)
VH: B1 VH with I34M, T59N, I78T, Y95S
VL: B1 VL
B4: 31E2D4 (antibody, V domains shown)
VH: QIQLVQSGPELKKPGETVKISCKASGYTLTNYGMNWVKQAPGKGLKWMGWINSYSGVPTYADDFKGRFAFSLETSASTAYLQINNLKNEDTATYFCARGENNYYGGSYDWGQGTTLTVSS
VL: B1 VL with F50Y, Y96L, G100A, I106L, K107R
B5: 17F3E8 (antibody, V domains shown)
VH: B1 VH with S44T, Y52H, T59S, G66D, I78T, E82D, A97S, N103H, M109L, Y111N
VL: B1 VL
B6: 25C5D6F3 (antibody, V domains shown)
VH: EVNLVESGGGLVQPGGSLRLSCATSGFTFSDFYMEWVRQPPGKRLEWIAASRNKANDYTTEYSASVKGRFIVSRDTSQSILYLQMNALRAEDTAIYYCTRGSYTNYTWFAYWGQGTLVTVSA
VL: B1 VL
B7: 27H11B5 (antibody, V domains shown)
VH: DVQLQESGPGLVKPSQSLSLTCTVTGYSITSDYAWNWIRQFPGNKLEWMGYISYSGSTSYNPSLKSRISITRDTSKNQFFLQLNSVTTEDTATYYCARCVYGNYVGAMDYWGQGTSVTVSS
VL: B1 VL with S30T, F50Y, A80T, Y96L, G100A, I106L
B8: 42C3A4 (antibody, V domains shown)
VH: EVKLEESGGGLVQPGGSMKLSCVASGITFSNYWMDWVRQSPEKGLEWVAEIRLKSNNYATHYAESVKGRFTISRDDSKNSVYLQMNNLRAEDTGIYYCTRGAPLFGGYYKGVYFDYWGQGTTLTVSS
VL: B1 VL with I2F, F10S, V13A, K24Q, D32E, F50Y, N53S, T63A, S93N
notes: as for B1
B9: 49E4C2 (antibody, V domains shown)
VH: B8 VH with N79S, G106D
VL: B1 VL with I2T, F10S, V13A, T20A, D32E, Q42L, F50Y, S93N
notes: as for B1
B10: 33A3E2 (antibody, V domains shown)
VH: EVKLVESGGGLVQPGGSRKLSCAASGFTFSDYGMVWVRQAPGKGLEWVAYIGSGRSTIYYADTVKGRFTISRDNPKNTLFLQMSSLRSEDTAMYYCAREDNGYSYAMDYWGQGTSVTVSS
VL: DIQMTQSPASQSASLGESVTITCLTSQTIGTWLAWYQQKPGKSPQLLIYAATSLADGVPSRFSGSGSGTKFSFKISSLQAEDFVSYYCQQLYSIPLTFGAGTKLELK
B11: 49B8G4 (antibody, V domains shown)
VH: B10 VH with V48I, S56N
VL: B10 VL with I21V, T25A, V84G, A100V
B12: 39C1C4 (antibody, V domains shown)
VH: B10 VH with S56N, A97V
VL: B10 VL with T25A
B13: 15B4C6 (antibody, V domains shown)
VH: QVQLKESGPGLVAPSQSLSITCTVSGFSLNGYGVNWVRQPPGKGLEWLGLIWNNGSTDYNSALKSRLTISKDNSKSLVFLKMNSLQTDDTARYYCARDPLYLLRGAMDYWGQGTSVTVSS
VL: DIVLTQSPASLTVSLGQRATISCRASKSVSSSGYNFIYWYQQKPGQPPKLLIYLASNLESGVPARFSGSGSGTDFTLNIHPVEEEDAATYYCQHSRDLPLTFGAGTKLELK
B14: 45C5A1 (antibody, V domains shown)
VH: EVKLVESGGGLVQPGGSLKLSCAASGFTFSNYTMSWVRQTPEKRLELVAEISNSDGSAYYPDTVKGRFTISRDNAKKTLYLQMSSLKSEDTAMYYCARHGGLRVYYAIDYWGQGTSVTVSS
VL: DIQMTQSPASQSASLGESVTITCLASQTIGPWLAWYQQKPGKSPQLLIYAATSLADGVPSRFSGSGSGTKFSFKISSLQAEDFVSYYCQQLYSDPLYTFGGGTKLEMK
B15: 7F10B2 (antibody, V domains shown)
VH: EVQLQQSGPELVKPGSSVKISCKTSGYTFTDYNMDWVKQSHGKSLEWIGTINPKNGETSDNQKFKAKATLTVDKSSSTAYMELRSLTSEDSAVYYCAKNVDYSNYLFFPMDYWGQGTSVTVSS
VL: SIVMTQTPKFLLVSAGDRVTITCKASQSVSNDVAWYQQKPGQSPKLLIYYASNRFTGVPDRFTGSGYGTDFTFTITTVQAEDLAVYFCQQDYSSRTFGGGTKLEIK
B16: 42A2A6 (antibody, V domains shown)
VH: DVQLQESGPGLVKPSQSLSLTCTVTGYSITSDYAWNWIRQFPGNKLEWMGFINYSGTTSYNPSLKSRISLTRDTSKNQFFLQLNSVTTEDTATYYCARWGYSDFLYYFDYWGQGTTLTVSS
VL: QIVLSQSPAILSASPGEKVTMTCRASSSVSYIHWYQQKPGYSPKPWIYATSNLASGVPARFSGGGSGTSYSLTISRVEAEDAATYYCQQWSNNPWTFGGGTKLEIK
notes: as for B1

What was measured:
[1] = biological target: T1, membrane-anchored human Ang2 protein …; experiment: FACS
[2] = biological target: T2, membrane-anchored cyno Ang2 protein …; experiment: FACS
[3] = biological target: T3, human Ang2 protein (R&D Systems, …); experiment: ELISA
[4] = biological target: T4, human Ang2 protein (R&D Systems, …); experiment: indirect ELISA, human Ang2 coated at 0.5 µg/ml
Procedure: (§1) The antibodies were tested for their binding activities to Ang2 in an indirect ELISA. Briefly, 100 μl of 0.5 μg/ml human or mouse Ang2 proteins (R&D Systems; 623-AN-01M/CF for human Ang2, 7186-AN-025/CF for mouse Ang2) were pre-coated onto ELISA plates overnight at 4° C. On the next day, the plates were incubated with […] diluted primary antibodies, with initial concentration at 1 μg/ml. The plates were added with HRP-conjugated goat anti-mouse IgG (H+L) and then TMB for chromogenic reaction. The antibody-antigen binding curves were generated with optical density readings at 450 nm. Raw data was plotted using GraphPad Prism v6.02 software with four parameters, and best-fit values program was used to analyze the EC₅₀.

[5] = biological target: T5, mouse Ang2 protein (R&D Systems, …); experiment: indirect ELISA, mouse Ang2 coated at 0.5 µg/ml
Procedure: as §1

Binder	EC50 [1] [nM]	EC50 [2] [nM]	EC50 [3] [ng/mL]	binding result [4]	binding result [5]
B1	6.33	18.8	42.4	binds	no binding (tested: initial concentration at 1 µg/ml)
B2			9.28		
B3			66.2		
B4			6.6		
B5			12.2		
B6			17.6		
B7			9.97		
B8	0.155	8.13	11.4	binds	
B9	0.14	29.4	11	binds	
B10			5.59		
B11			4.57		
B12			4.47		
B13			11.2		
B14			7.03		
B15			4.62		
B16	7.84	3.88	9.87	binds	no binding (tested: initial concentration at 1 µg/ml)
